These results are taken from patent US20250027068.

Substitutions are numbered along the chain they refer to.

Sequences and labels used below:
B1: PRT-81 (protein)
chain: MANQEIRYSEVTPSHVTSVWTKGVTPPADFTQGEDVFHAPYVANQGWYDITKTFNGKDNLLCGAATAGNMLHWWFDQNKEQIENYLKKHPEKQKIMFGDQELLDVRKVINTKDSQTNSALFNYFRDKAFPNLSARRLGVMPDLVLDMFINGYYLNLTKTQTTDVNRTYQTKDKRGGIFDAVFTRGDQSKLLTSRHDFKEKTLKEISDLIKQELTEGKALGLSHTYANVRINHVINLWGADFDSNGNLKAIYVTDSDSNASIGMKKYFVGVNSAGKVAISAKEITEDNIGAQVLGLFTLSTGKDQWNQTN
B2: PRT-78 (protein)
chain: MANQEIRYSEETPYHVTSVWTKGVTPPADFTQGEDVFHAPYVANQGWYDITKTFNGKDDLLCGAATAGNMLHWWFDQNKEYIEAYLKKHPEKQKIMFGDQELLDVRKAINTKGSQKNSELFNYFRDKAFPNLSARRLGVMPDLVLDMFINGYYLNVTKTQTTDVNRTYQEKDKRGGIFDAVFTRGDQSKLLTSRHDFKEKGLKEISDLIKQELTEGKALGLSHTYANVRINHVINLWGADFDSDGNLKAIYVTDSDSNASIGMKKYFVGVNSAGKVAISAKEIKEDNIGAQVLGLFTLSTGQDIWNQTN
B3: PRT-80 (protein)
chain: MANQEIRYSEVTPKHITSVWTKGVTPPTQFIQGEDVFHAPYKANQGWYDITKTFNGKDDLLCGAATAGNMLHWWFDQNKEEIEAYLKKHPEKQKIMFGDQELLDVRKAINTKDDQTNSELFNYFRDKAFPNLSARRLGVMPDHVLDMFINGYYLNVNKTQTTDVNRTYQEKDPRGGIFDAVFTRGDQSKLLTSRHDFKEKTLKEISDLIKQELTEGKALGLSHTYANVRINHVINLWGADFDSNGNLKAIYVTDSDSDASIGMKKYFVGVNSAGKVAISAKEIKGDNIGAQVLGLFTLSTGQDIWNQTN
B4: PRT-76 (protein)
chain: MANQEIRYSEVTPYHITSVWTKGVTPPAKFTQGEDVFHAPYVANQGWYDITKTFNGKDDLLCGAATAGNMLHWWFDQNKEEIEAYLKKHPEKQKIMFGDQELLDVRKVINTKDSQTNSALFNYFKDKAFPNLSARRLGVMPDLVLDMFINGYYLNVYKTQTTDVNRTYQTKDRRGGIFDAVFTRGDQSKLLTERHDFKEKTLKEISDLIKQELTEGKALGLSHTYANVRINHVINLWGADFDSNGNLEAIYVTDSDSNASIGMKKYFVGVNSAGKVAISAKEIKEDNIGAQVLGLFTLSTGQDIWNQTN
B5: PRT-83 (protein)
chain: MANQEIRYSEETPYHVTSVWTKGVTPPEKFTQGEDVFHAPYVANQGWYDITKTFNGKDDLLCGAATAGNMLHWWFDQNKDQIEAYLSKHPEKQKIMFGDQELLDVRKAINTKDSQTNSELFNYFRDKAFPNLSARRLGVMPDLVLDMFINGYRLNVTKTQTTDVNETYQEKDKRGGIFDAVFTRGDQSKLLTSRHDFKEKTLNEISDLIKKELTEGKALGISHTYANVRINHVINLWGADFNSEGNLEAIYVTDSDSNASIGMKKYFVGVNSAGKVAISAKEIEEENIGAQVLGLFTLSTGQDIWQQTN
B6: PRT-77 (protein)
chain: MANQEIRYSEVTPYHVTSVWTKGVTPPTNFTQGEDVFHAPYVANQGWYDITKTFNGKDNLLCGAATAGNMLHWWFDQNKEEIERYLKKHPEKQKIMFGDQELLDVRKVINTKDDQKNSELFNYFRDKAFPGLSARRLGVMPDLVLDMFINGYYLNVGKTQTTDVNRTYQEKDKRGGIFDAVFTRGDQSKLLTSRHDFKEKNLKEISDLIKQELTEGKALGLSHTYANVRINHVINLWGADFDSNGNLEAIYVTDSDSNASIGMKKYFVGVNSAGKVAISAKEIEEDNIGAQVLGLFTLSTGQDIWNQTN
B7: PRT-111 (protein)
chain: MRNATEAYAKEVPHQITSVWTKGVTPPTPEQFRYNNEDVFHAPYLAHQGWYDITKTFNGKDNLLCGAATAGNMLHWWFDQNKTEIEAYLKKHPEKQKIIFNNQELFDLKAAIDTKDSQTNSQLFNYFRDKAFPNLSARQLGVMPDLVLDMFINGYYLNVFKTQSTDVNRPYQDKDKRGGIFDAVFTRGDQTTLLTNRHDLKNKGLNDISTLIKQELTEGKALALSHTYANVSISHVINLWGADFNAEGNLEAIYVTDSDANASIGMKKYFVGINSAGHVAISAKKIEGENIGAQVLGLFTLSSGKDIWQKLS
B8: PRT-6 (protein)
chain: MANQEIRYSEVTPYHVTSVWTKGVTPPANFTQGEDVFHAPYVANQGWYDITKTFNGKDDLLCGAATAGNMLHWWFDQNKEQIERYLKEHPEKQKINFNGEQMFDVKEAIDTKNSQLDSKLFEYFKEKAFPYLSTKHLGVFPDHVIDMFINGYRLSLTNHGPTPVKEGSKDPRGGIFDAVFTRGDQSKLLTSRHDFKEKNLKEISDLIKKELTEGKALGLSHTYANVRINHVINLWGADFDSNGNLKAIYVTDSDSNASIGMKKYFVGVNSAGKVAISAKEIEGDNIGAQVLGLFTLSTGQDIWNQTN
B9: PRT-7 (protein)
chain: B8 chain with V11E, E80D, E88K, N113D, L116T, E282K, G283E, N304E
B10: PRT-8 (protein)
chain: B8 chain with A28T, V42I, E80D, I145L, K209Q, K246E, E282K, G283D
B11: PRT-9 (protein)
chain: B8 chain with V11E, N199T, G218A, E282K, G283E, T298S
B12: PRT-82 (protein)
chain: MANQEIRYSEVTPSTITSVWTKGVTPPAQFIQNEDVFHAPYVANQGWYDITKTFNGKDDLLCGAATAGNMLHWWFDQNKEEIEAYLKKHPEKQKIMFGDQELLDVRKVINTKDDQTNSALFNYFKDKAFPNLSARRLGVMPDLVLDMFINGYYLNVGKTQTTDVNRTYQNKDRRGGIFDAVFTRGDQSKLLTARHDFKEKNLNEISDLIKQELTEGKALALSHTYANVSINHVINLWGADFDANGNLEAIYVTDSDSNASIGMKKYFVGVNSAGKVAISAKEIEEDNIGAQVLGLFTLSTGQDIWNKTN
B13: PRT-79 (protein)
chain: MANQEIRYSEVTPKTITSVWTKGVTPPAKFTQNEDVFHAPYVANQGWYDITKTFNGKDDLLCGAATAGNMLHWWFDQNKEQIEAYLKKHPEKQKIMFGDQELLDVRKVINTKDDQTNSELFNYFKDKAFPNLSARRLGVMPDLVLDMFINGYRLNVGKTQTTDVNRTYQDKDPRGGIFDAVFTRGDQSKLLTSRHDFKEKNLKEISDLIKQELTEGKALGLSHTYANVRINHVINLWGADFDSEGNLEAIYVTDSDSNASIGMKKYFVGVNSAGKVAISAKEIEEDNIGAQVLGLFTLSTGQDIWEQTN

The series deals with pooled human IgG.
Consider B1, for which the Enzyme Activity Endpoint Assay (purified): Fab′2 came to 14 ng/µL, the Enzyme Activity Endpoint Assay (purified): Fc amounted to 67 ng/µL, the Enzyme Activity Endpoint Assay (purified): IgG was determined as 30 ng/µL and the Enzyme Activity Endpoint Assay (purified): scIgG was 56 ng/µL.

For the protein B2, the Enzyme Activity Endpoint Assay (purified): Fab′2 was 34 ng/µL, the Enzyme Activity Endpoint Assay (purified): Fc came to 94 ng/µL, the Enzyme Activity Endpoint Assay (purified): IgG turned out to be 21 ng/µL and the Enzyme Activity Endpoint Assay (purified): scIgG was 11 ng/µL.

Protein B3 gave an Enzyme Activity Endpoint Assay (purified): Fab′2 of 15 ng/µL, an Enzyme Activity Endpoint Assay (purified): Fc of 70 ng/µL, an Enzyme Activity Endpoint Assay (purified): IgG of 29 ng/µL and an Enzyme Activity Endpoint Assay (purified): scIgG of 34 ng/µL.

B4 showed an Enzyme Activity Endpoint Assay (purified): Fab′2 of 20 ng/µL, an Enzyme Activity Endpoint Assay (purified): Fc of 78 ng/µL, an Enzyme Activity Endpoint Assay (purified): IgG of 37 ng/µL and an Enzyme Activity Endpoint Assay (purified): scIgG of 38 ng/µL.

In turn, B5 came in with an Enzyme Activity Endpoint Assay (purified): Fab′2 of 0 ng/µL, an Enzyme Activity Endpoint Assay (purified): Fc of 44 ng/µL, an Enzyme Activity Endpoint Assay (purified): IgG of 42 ng/µL and an Enzyme Activity Endpoint Assay (purified): scIgG of 40 ng/µL.

B6: the Enzyme Activity Endpoint Assay (purified): Fab′2 stood at 33 ng/µL, the Enzyme Activity Endpoint Assay (purified): Fc is 104 ng/µL, the Enzyme Activity Endpoint Assay (purified): IgG came out at 14 ng/µL and the Enzyme Activity Endpoint Assay (purified): scIgG came to 17 ng/µL.

For B7, the Enzyme Activity Endpoint Assay (purified): Fab'2 is 328 ng/µL, the Enzyme Activity Endpoint Assay (purified): Fc amounted to 133 ng/µL, the Enzyme Activity Endpoint Assay (purified): IgG stood at 26 ng/µL and the Enzyme Activity Endpoint Assay (purified): scIgG is 0 ng/µL.

B8 returned an Enzyme Activity Endpoint Assay: Fab′2 of 49 ng/µL, an Enzyme Activity Endpoint Assay: Fc of 129 ng/µL, an Enzyme Activity Endpoint Assay: IgG of 16 ng/µL and an Enzyme Activity Endpoint Assay: scIgG of 15 ng/µL.

Protein B9 had an Enzyme Activity Endpoint Assay: Fab′2 of 50 ng/µL, an Enzyme Activity Endpoint Assay: Fc of 137 ng/µL, an Enzyme Activity Endpoint Assay: IgG of 18 ng/µL and an Enzyme Activity Endpoint Assay: scIgG of 16 ng/µL.

B10: the Enzyme Activity Endpoint Assay: Fab′2 is 50 ng/µL, the Enzyme Activity Endpoint Assay: Fc stood at 127 ng/µL, the Enzyme Activity Endpoint Assay: IgG was 16 ng/µL and the Enzyme Activity Endpoint Assay: scIgG is 16 ng/µL.

Consider B11, for which the Enzyme Activity Endpoint Assay: Fab′2 is 39 ng/µL, the Enzyme Activity Endpoint Assay: Fc was 103 ng/µL, the Enzyme Activity Endpoint Assay: IgG is 21 ng/µL and the Enzyme Activity Endpoint Assay: scIgG was 32 ng/µL.

Protein B12 displayed an Enzyme Activity Endpoint Assay (purified): Fab′2 of 9 ng/µL, an Enzyme Activity Endpoint Assay (purified): Fc of 67 ng/µL, an Enzyme Activity Endpoint Assay (purified): IgG of 15 ng/µL and an Enzyme Activity Endpoint Assay (purified): scIgG of 60 ng/µL.

As for B13, the Enzyme Activity Endpoint Assay (purified): Fab′2 came out at 0 ng/µL, the Enzyme Activity Endpoint Assay (purified): Fc was 44 ng/µL, the Enzyme Activity Endpoint Assay (purified): IgG came to 72 ng/µL and the Enzyme Activity Endpoint Assay (purified): scIgG turned out to be 38 ng/µL.
